Data from US20220387586A1 (Hoffmann-La Roche, published 2022).

T1: human Fc tagged human Lag3 extra cellular domain (human, UniProt P18627 29-450, biotinylated in the epitope binning, the SA CAP SPR and the FACS competition assay)
T1 construct: In-house fusion; also called huLag3-Fc; biotinylated, huFc-tagged huLag3; not shown: human Fc tag
T1 sequence: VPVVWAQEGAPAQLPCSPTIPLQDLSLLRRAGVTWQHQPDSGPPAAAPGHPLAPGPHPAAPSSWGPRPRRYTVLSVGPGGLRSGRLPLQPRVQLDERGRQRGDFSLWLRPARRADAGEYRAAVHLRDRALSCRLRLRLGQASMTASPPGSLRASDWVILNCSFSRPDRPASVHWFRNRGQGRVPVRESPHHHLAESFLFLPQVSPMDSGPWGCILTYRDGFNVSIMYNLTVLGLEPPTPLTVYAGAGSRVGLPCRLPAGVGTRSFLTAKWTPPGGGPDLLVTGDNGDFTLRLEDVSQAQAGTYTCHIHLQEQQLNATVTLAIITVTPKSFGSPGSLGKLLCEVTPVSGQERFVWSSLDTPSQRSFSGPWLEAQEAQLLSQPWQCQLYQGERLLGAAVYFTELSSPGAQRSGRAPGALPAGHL

T2: LAG3 on cells (recombinant CHO cells expressing Lag3) (human, UniProt P18627 29-525)
T2 construct: The cell ELISA paragraphs say only 'Lag3'; also called CHO-LAG3; Lag3 cells
T2 sequence: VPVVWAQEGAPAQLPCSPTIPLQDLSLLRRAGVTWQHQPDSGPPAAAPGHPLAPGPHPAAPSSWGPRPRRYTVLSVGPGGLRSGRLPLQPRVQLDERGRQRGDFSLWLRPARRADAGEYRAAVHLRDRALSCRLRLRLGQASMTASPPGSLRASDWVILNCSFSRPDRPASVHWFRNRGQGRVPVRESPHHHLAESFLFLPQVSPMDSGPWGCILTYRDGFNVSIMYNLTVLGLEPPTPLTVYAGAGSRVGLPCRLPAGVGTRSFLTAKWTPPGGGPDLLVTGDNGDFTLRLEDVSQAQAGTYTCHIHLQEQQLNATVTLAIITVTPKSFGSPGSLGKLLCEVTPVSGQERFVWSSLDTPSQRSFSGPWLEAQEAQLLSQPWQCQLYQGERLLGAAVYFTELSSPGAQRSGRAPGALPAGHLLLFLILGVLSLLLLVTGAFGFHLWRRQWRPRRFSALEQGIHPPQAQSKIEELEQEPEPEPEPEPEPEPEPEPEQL

T3: biotinylated-Lag3 (UniProt P18627 23-450, limits assumed, biotinylated)
T3 construct: Probably a human LAG3 ECD construct; also called Lag3 (MHCII/ELISA)
T3 sequence (looked up): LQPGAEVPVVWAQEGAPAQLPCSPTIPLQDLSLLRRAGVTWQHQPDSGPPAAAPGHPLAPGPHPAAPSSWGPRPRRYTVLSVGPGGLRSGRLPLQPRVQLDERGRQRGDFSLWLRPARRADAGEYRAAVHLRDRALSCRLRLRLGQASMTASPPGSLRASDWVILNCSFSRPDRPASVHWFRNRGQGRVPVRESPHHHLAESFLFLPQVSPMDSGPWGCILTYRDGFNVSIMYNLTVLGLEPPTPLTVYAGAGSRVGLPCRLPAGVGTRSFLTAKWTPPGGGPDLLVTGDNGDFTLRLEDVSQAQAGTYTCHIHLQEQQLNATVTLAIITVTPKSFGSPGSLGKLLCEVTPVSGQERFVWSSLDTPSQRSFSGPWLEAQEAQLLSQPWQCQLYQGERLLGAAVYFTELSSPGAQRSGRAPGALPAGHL


Columns and labels:
[1] = molecular target: T1, human Fc tagged human Lag3 extra …; experiment: FACS, inhibition of biotinylated Lag3:Fc binding to MHC-II on A375 cells (competitor MHC-II); antibody 10 µg/ml
Procedure: This analysis was studied in a FACS competition experiment: A375 cells (ATCC, #CRL-1619) were cultured for 2-3 passages in EM Eagle's medium supplemented with EBSS (PAN, cat.no. #P04-00509), 10% FBS, 2 mM L-Glutamin, 1×NEAA and 1× Sodium Pyruvate. All antibodies, were diluted in FACS buffer to a final concentration of 20 μg/ml in 25 μl (in 96well U-bottom plates). […] A375 cells were washed with PBS and adjusted to 3×10⁶ cells/ml in PBS. 100 μl were seeded per well in a 96well V-bottom plate. Plates were centrifuged and supernatant was removed. […] After this, cells were washed with 200 μl FACS buffer. […] After staining, cells were again washed and then transferred in 150 μl FACS buffer (PBS/2% FBS) to a U-bottom plate and analyzed on a FACS Canto-II using an HTS module.
All antibodies were used at 10 μg/ml final concentration.

cynomolgus LAG3 on cells [2] = molecular target: T4, cynomolgus LAG3 on cells (cynomolgus); experiment: flow cytometry on HEK293F cells transfected with cyno-LAG-3, antibody 10 µg/ml
T4 construct: whole, on cells; also called cyno-LAG-3; cynoLAG3
Procedure: 1.5×10⁵ cells/well were seeded into 96-well plates. […] HEK cells were incubated with indicated antibodies for 45 min on ice, washed twice with 200 μl ice-cold PBS buffer containing 2% FBS, before secondary antibody (APC-labelled goat anti-human IgG-kappa, Invitrogen, cat.no. #MH10515) was added (1:50 diluted in FACS-Puffer/well) and further incubated for 30 min on ice. Cells were again washed twice with 200 μl ice-cold PBS/2% FBS buffer before samples were finally resuspended in 150 μl FACS buffer and binding was measured on FACS CANTO-II HTS Module.

[3] = molecular target: T2, LAG3 on cells (recombinant CHO cells …); experiment: cell ELISA on recombinant CHO cells expressing Lag3
Procedure: After washing (1×90 μl in PBST) cells were fixed by addition of 30 μl/well glutaraldehyde to a final concentration of 0.05% (Sigma Cat.No: G5882), 10 min at room temperature. After washing (3×90 μl/well with PBST-buffer) 25 μl/well goat anti-Human Ig κ chain antibody-HRP conjugate (Milipore, AP502P) was added in a 1:1000 dilution and incubated at RT for 1 h. After washing (3×90 μl/well with PBST-buffer) 25 μl/well TMB substrate (Roche, 11835033001) was added and incubated for 6-10 min. Measurement took place on a Tecan Safire 2 instrument at 370/492 nm.

cynomolgus LAG3 on cells [4] = molecular target: T4, cynomolgus LAG3 on cells; experiment: flow cytometry on activated cynomolgus PBMC, 10 µg/ml (only 2nd Ab (rb): 5.26)
Procedure: Thus, cynomolgus peripheral blood mononuclear cells (PBMC) were prepared from fresh cynomolgus blood and were then activated by CD3/CD28 pre-treatment (1 μg/ml) for 2-3 days. […] After staining, cells were washed two times with PBS/2% FCS and analyzed on a FACS Fortessa (BD).

biotinylated-Lag3 = molecular target: T3, biotinylated-Lag3; experiment: ELISA, inhibition of biotinylated-Lag3 binding to MHC-II on A375 cells (competitor MHC-II)
Procedure: 25 μl/well of A375 cells (10000 cells/well) were seeded into tissue culture treated 384-well plates (Corning, 3701) and incubated at 37° C. overnight. […] After washing (1×90 μl in PBST) cells were fixed by addition of 30 μl/well glutaraldehyde to a final concentration of 0.05% (Sigma Cat.No: G5882), 10 min at room temperature. After washing (3×90 μl/well with PBST-buffer) 25 μl/well Poly-HRP40-Streptavidin (Fitzgerald, 65R-S104PHRPx) was added in a 1:2000 or 1:8000 dilution and incubated at RT for 1 h. After washing (3×90 μl/well with PBST-buffer) 25 μl/well TMB substrate (Roche, #11835033001) was added and incubated for 2 to 10 min. Measurement took place on a Tecan Safire 2 instrument at 370/492 nm.

[5] = molecular target: T2, LAG3 on cells (recombinant CHO cells …); experiment: cell-based or functional assay

Binder | % Inhibition [1] [%] | % pos. (cynomolgus LAG3 on cells [2]) [%] | GeoMean (cynomolgus LAG3 on cells [2]) | CHO-cell ELISA inflexion point [3] [ng/mL] | % positive cyno cells (PBLs) after CD3/CD28 activation (cynomolgus LAG3 on cells [4]) [%] | IC50 (biotinylated-Lag3) [nM] | EC50 [nM] in Jurkat LAG3 + SED + Raji (NFAT luciferase), 1st assay [5] [nM] | EC50 [nM] in Jurkat LAG3 + SED + Raji (NFAT luciferase), 2nd assay [5] [nM] | EC50 [nM] in Jurkat LAG3 + SED + Raji (NFAT luciferase), 3rd assay [5] [nM]
aLAG3(0403) (antibody, V domains shown) VH: EVQLLESGGGLVQPGGSLRLSCAASGFTFDDYTMHWVRQAPGKGLEWVSLVSWDGGGTYYTNSVKGRFTISRDNSKNTLYLQMNSLRAEDTAVYFCAKAITDTSLYGYDYWGQGILVTVSS VL: not shown | 34.9 | 82 | 7460 | 30.9 | 44.2 | 0.9 |  |  | 
aLAG3(0414) (antibody, V domains shown) VH: EVQLLESGGGLVQPGGSLRLSCAASGFIFDDYTMNWVRQAPGKGLEWVAVISWDGGGTYYTDSVKGRFTISRDDFKNTLYLQMNSLRAEDTAVYYCAKGLTDTTLYGSDYWGQGTLVTVSS VL: DIQMTQSPSSLSASVGDRVTITCRASQSISSYLNWYQQKPGKAPKLLIYAASTLQSGVPSRFSGSGSGTDFTLTISSLQPEDFATYYCQQTYSSPLTFGGGTKVEIKG | 67.3 | 81.6 | 9170 | 48.1 | 43 | 0.9 | 1.1 | 1 | 1.8
aLAG3(0411) (antibody, V domains shown, also called aLAG3 (411)) VH: EVHLLESGGGLVQPGGSLRLSCAASGFIVDDYTMNWVRQAPGKGLEWVSVISWDGGATYYADSVKGRFTISRDDFKNTLYLQMNSLRAEDTAVYYCAKGLTDDTLYGSDYWGQGTLVTVSS VL: DIQMTQSPSSLSASVGDRVTITCRASQSIVSYLNWYQQKPGKAPKLLIYASSSLQSGVPSRFSGSGSGTDFTLTISSLQPEDFATYYCQQTYSTPLTFGGGTKVEIK | 45.6 | 88.6 | 11000 | 41.3 | 46.6 | 0.8 | 1.1 | 1 | 

Further lines, results first:

% Inhibition [1] [%] | % pos. (cynomolgus LAG3 on cells [2]) [%] | GeoMean (cynomolgus LAG3 on cells [2]) | CHO-cell ELISA inflexion point [3] [ng/mL] | % positive cyno cells (PBLs) after CD3/CD28 activation (cynomolgus LAG3 on cells [4]) [%] | IC50 (biotinylated-Lag3) [nM] | EC50 [nM] in Jurkat LAG3 + SED + Raji (NFAT luciferase), 1st assay [5] [nM] | EC50 [nM] in Jurkat LAG3 + SED + Raji (NFAT luciferase), 2nd assay [5] [nM] | EC50 [nM] in Jurkat LAG3 + SED + Raji (NFAT luciferase), 3rd assay [5] [nM] | Binder
59.1 | 75.9 | 7120 | 27.8 | 35.3 | 0.9 | 1 |  |  | aLAG3(0417) (antibody, V domains shown, also called aLAG3 (417)) VH: EVQLVESGGGLVQPGGSLRLACAASGFTFSDYAMSWVRQAPGKGLEWVSGIDNSGYYTYYTDSVKGRFTISRDDVKNTLYLQMNSLRAEDTAVYLCTKTHSGLIVNDAFDIWGQGTMVTVSS VL: not shown
68.6 | 67.9 | 4220 | 37.2 | 38.9 | 0.9 | 3.1 | 2.5 | 3.5 | aLAG3(0416) (antibody, V domains shown) VH: EVQLVESGGGLVQPGGSLRLACAASGFTFSDYAMSWVRQAPGKGLEWVSGIDNSGYYTYYTDSVKGRFTISRDDVKNTLYLQMNSLRAEDTAVYLCTKTHSGLIVNDAFDIWGQGTMVTVSS VL: DIQLTQSPSSLSASVGDRVTITCRASQSISSYLNWYQQKPGKAPKLLIYDASSLESGVPSRFSGSGSGTDATLTISSLQPEDFATYYCQQSYSTPLTFGGGTKVEIKG
